Experimental findings from patent publication US20200347130A1 (JIANGSU HENGRUI MEDICINE, published 2020) are described below.

Experiment [1] addresses T1, CD96 extracellular region with His tag (CD96-His) (human, UniProt P40200 22-519).
T1 construct: also called CD96-ECD-His; Bio-CD96-His (biotin-labelled form)
T1 sequence: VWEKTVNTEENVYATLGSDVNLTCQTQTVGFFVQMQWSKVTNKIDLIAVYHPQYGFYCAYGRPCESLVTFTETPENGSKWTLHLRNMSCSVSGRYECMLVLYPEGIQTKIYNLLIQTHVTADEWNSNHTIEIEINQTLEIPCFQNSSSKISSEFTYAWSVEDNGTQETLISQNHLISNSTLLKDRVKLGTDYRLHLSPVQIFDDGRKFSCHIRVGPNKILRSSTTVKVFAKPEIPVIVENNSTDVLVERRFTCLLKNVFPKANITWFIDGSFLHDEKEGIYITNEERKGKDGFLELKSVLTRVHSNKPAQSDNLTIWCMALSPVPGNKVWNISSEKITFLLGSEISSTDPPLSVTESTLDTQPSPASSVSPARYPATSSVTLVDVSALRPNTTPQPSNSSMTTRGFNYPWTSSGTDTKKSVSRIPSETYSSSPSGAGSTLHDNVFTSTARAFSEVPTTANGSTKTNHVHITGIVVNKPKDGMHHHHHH
Briefly: SPR (Biacore), antibody captured, CD96-ECD-His as mobile phase. The text has this: Protein A biosensor chip was used to capture antibodies to be tested, then CD96 antigen was flowed on the surface of the chip, and real time reaction signal was detected by Biacore to obtain the binding and dissociation curve. After the dissociation of each experimental cycle was completed, the biosensor chip was washed and regenerated with a glycine-hydrochloric acid regeneration solution (pH 1.5).
(In general: Surface plasmon resonance follows binding to a sensor surface in real time, without labels.)

In experiment [2] the target is T1, CD96 extracellular region with His tag …. Briefly: ELISA, CD96-His coated. How it is done: The binding capacity of the anti-CD96 antibody was tested by ELISA to determine the binding of the antibody to human CD96 protein. The His-tagged CD96 fusion protein was used to coat the microtiter plate, and the intensity of the signal after adding with the antibody was used for evaluating the binding activity of the antibody and CD96. The specific experimental method is as follows:
CD96-His with the sequence of SEQ ID NO: 4 prepared in Embodiment 1 was diluted to a concentration of 2 μg/ml with PBS buffer (Shanghai Yuanpei Biotechnology Co., Ltd. Cat No. B320), pH 7.4, added to a 96-well microtiter plate (Corning, Cat No. CLS3590-100EA) at a volume of 50 μl/well, and placed in an incubator at 37° C. for 2 hours. After discarding the liquid, 250 μl/well of 5% skim milk (BD, Cat No. 232100) blocking solution diluted with PBS was added, and the plate was incubated at 37° C. for 2.5 hours or at 4° C. overnight (16-18 hours) for blocking. After blocking, the blocking solution was discarded, and the plate was washed 4 times with PBST buffer (pH 7.4 PBS containing 0.05% tween-20). 50 μl/well of different concentrations of the antibodies to be tested (hybridoma purification antibody or humanized antibody) diluted with sample dilution was added, and the plate was incubated in an incubator at 37° C. for 1 hour. […] After washing the plate 4 times with PBST, 50 μl/well of TMB chromogenic substrate (KPL, Cat No. 52-00-03) was added, and the plate was incubated at room temperature for 5-15 minutes, followed by adding 50 μl/well of 1M H₂SO₄ to stop the reaction. The absorption value was read at 450 nm with a NOVOStar microplate reader, and the EC50 value of the binding of CD96 antibody to human CD96 was calculated (see Table 13).
(An ELISA detects its analyte on a solid surface through an enzyme-linked reagent.)

The target of experiment [3] is T2, Full-length human CD96 on CHO-S cells (human, UniProt P40200 22-585).
T2 construct: also called CD96-CHOs; hCD96-CHOs
T2 sequence: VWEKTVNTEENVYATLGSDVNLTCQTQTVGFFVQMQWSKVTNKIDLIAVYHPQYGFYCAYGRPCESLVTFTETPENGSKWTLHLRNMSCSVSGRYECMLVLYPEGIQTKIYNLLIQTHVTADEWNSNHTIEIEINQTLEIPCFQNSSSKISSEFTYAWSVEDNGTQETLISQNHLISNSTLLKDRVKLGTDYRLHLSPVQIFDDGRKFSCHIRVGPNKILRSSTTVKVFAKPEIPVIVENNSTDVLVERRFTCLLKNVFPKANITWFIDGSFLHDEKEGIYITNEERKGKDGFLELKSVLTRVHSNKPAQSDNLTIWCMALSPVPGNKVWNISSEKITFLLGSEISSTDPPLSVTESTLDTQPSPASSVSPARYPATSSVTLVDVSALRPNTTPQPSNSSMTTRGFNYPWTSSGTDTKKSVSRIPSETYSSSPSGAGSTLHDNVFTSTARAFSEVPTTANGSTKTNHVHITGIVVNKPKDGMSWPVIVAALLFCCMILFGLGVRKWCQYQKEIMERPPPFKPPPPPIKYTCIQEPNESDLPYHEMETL
The experiment can be described thus: cell ELISA, fixed CD96-overexpressing CHO-S cells. On the procedure:
The binding capacity of the anti-CD96 antibody was tested by binding experiments of the antibody to human CD96 protein overexpressing CHO-S cells. The full-length CD96 plasmid was transfected into CHO-S cells by electrotransfection, and cells were then screened for two weeks under pressure for the detection of the expression of CD96. After the over-expressing cells were fixed at the bottom of the 96-well plate, the density of the signal after adding the antibody was used to judge the binding activity of the antibody to CD96 overexpressing CHO-S cells. The specific experimental method is as follows:
The cells were seeded at a density of 9×10⁴/100 μL/well in a 96-well plate and cultured overnight. After aspirating the supernatant, the plate was washed once with PBS, subsequently, 100 μl/well immunostaining fixation solution (Biyuntian, P0098) was added and fixed for one hour at room temperature, and the plate was washed three times with PBS. Once the liquid was discarded, 250 μl/well of 5% skim milk (BD, 232100) blocking solution diluted with PBS was added, and the plate was blocked in an incubator at 37° C. for 2.5 hours. After blocking, the blocking solution was discarded, the plate was washed 4 times with PBST buffer (pH 7.4 PBS containing 0.05% tween-20), followed by diluting 50 μl/well of different concentrations of the antibodies (hybridoma purification antibody or humanized antibody) to be tested the plate was incubated in an incubator at 37° C. for 2 hours. After incubation, the plate was wash 4 times with PBST. […] After washing the plate 4 times with PBST, 50 μl/well of TMB chromogenic substrate (KPL, Cat No. 52-00-03) was added, the plate was incubated at room temperature for 10-25 min, followed by adding 50 μl/well of 1M H₂SO₄ to stop the reaction. The absorption value was read at 450 nm with a NOVOStar microplate reader, and the EC50 value of the CD96 antibodies to CD96 overexpressing CHO-S cells was calculated (see FIG. 1 and Table 15).

What is called Kd is the free concentration of one partner at which half of the binding sites on the other are occupied at equilibrium, for simple one-to-one binding. As a reminder, the EC50 is the concentration needed to bring the measured effect to its halfway point. Lower therefore signals a more potent agent.

B1: h1719-006 (antibody, V domains shown)
VH: EVTLKESGPVLVKPTETLTLTCTVSGFSLSSYGVSWVRQPPGKGLEWLGVIWGDGNTNYHSVLISRLTISKDTSKSQVVLTLTNMDPVDTATYYCAKNNYYGSRYGYPMDYWGQGTTVTVSS
VL: DIQMTQSPSSVSASVGDRVTITCKATQDVGTAVAWYQQKPGKSPKLLIYWASTRHTGVPERFSGSGSGTDFTLTISSLQPEDFATYFCQQYGSSVLTFGGGTKVEIK
notes: also called M719-006
B1 gave a Kd in experiment [1] of 13100 pM. Also, the concentration giving a half-maximal response (EC50) in experiment [2] amounted to 83 pM; in experiment [3], 16 pM.

B2: h1719-014 (antibody, V domains shown)
VH: EVTLKESGPVLVKPTETLTLTCTVSGFSLSSYGVSWVRQPPGKGLEWLGVIWGDGNTNYHSVLISRLTISKDTSKSQVVLTLTNMDPVDTATYYCAKNYYYGSRYGYPLDYWGQGTTVTVSS
VL: DIQMTQSPSSVSASVGDRVTITCKATQDVGTAVAWYQQKPGKSPKLLIYWASTRHTGVPERFSGSGSGTDFTLTISSLQPEDFATYFCQQYGSSVLTFGGGTKVEIK
notes: Only variable regions are tied to this name; also called M719-014
With B2, in experiment [1], the Kd turned out to be 14900 pM. For the same molecule, the concentration for a half-maximal effect (EC50) amounted to 91 pM in experiment [2] and 20 pM in experiment [3].

B3: ch1722 (antibody, human IgG4 S228P, kappa, V domains shown)
VH: QVQLQQPGAELVKPGTSVKLSCKASGNTFIDYWMHWVKQRPGQGLEWIGMLHPNSGTTSFNEKFKIKTTLTIDKSSSTAYMQLSSLTSEDSAIYYCASDYSGPFAYWGQGTLVTVSA
VL: QIVLTQSPGIMSAFPGEKVTMTCSASSSVNYIHWYQQKSGTSPKRWIFDTSKLASGVPARFSGSGSGTSYSLTISSMEAEDAATYYCQQWRSNPLTFGAGTKLELKR
notes: also called chi722; chimeric antibody corresponding to m1722
As for B3, the Kd in experiment [1] was 1050 pM. The values for the 50% effective concentration (EC50) in experiment [2] and in experiment [3] were 94 pM and 43 pM, respectively.
